{"source": "paper PMC4988437", "about": "(Channels, 2016)", "binders": {"B1": {"name": "YFP-tagged alpha1C N-terminus (domain or fragment)", "chain": "not shown"}}, "assay_in_all_cases": "FRET or BRET", "key": {"[1]": {"molecular_target": "T1, CFP-Rem(1-275) (mouse, UniProt O35929 1-275)", "T1 sequence (looked up)": "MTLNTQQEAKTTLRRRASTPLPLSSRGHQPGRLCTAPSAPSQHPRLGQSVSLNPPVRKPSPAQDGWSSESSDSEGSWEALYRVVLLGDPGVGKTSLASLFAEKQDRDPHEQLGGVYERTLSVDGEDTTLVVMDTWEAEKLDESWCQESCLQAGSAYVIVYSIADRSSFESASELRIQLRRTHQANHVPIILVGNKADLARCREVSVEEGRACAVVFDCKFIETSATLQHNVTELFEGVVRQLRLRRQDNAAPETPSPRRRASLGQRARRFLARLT"}, "[2]": {"molecular_target": "T2, CFP-Rem(224-297) (mouse, UniProt O35929 224-297)", "T2 sequence (looked up)": "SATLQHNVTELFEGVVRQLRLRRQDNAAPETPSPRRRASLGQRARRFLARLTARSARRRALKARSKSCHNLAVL"}, "[3]": {"molecular_target": "T3, CFP-Rem(1-285) (mouse, UniProt O35929 1-285)", "T3 sequence (looked up)": "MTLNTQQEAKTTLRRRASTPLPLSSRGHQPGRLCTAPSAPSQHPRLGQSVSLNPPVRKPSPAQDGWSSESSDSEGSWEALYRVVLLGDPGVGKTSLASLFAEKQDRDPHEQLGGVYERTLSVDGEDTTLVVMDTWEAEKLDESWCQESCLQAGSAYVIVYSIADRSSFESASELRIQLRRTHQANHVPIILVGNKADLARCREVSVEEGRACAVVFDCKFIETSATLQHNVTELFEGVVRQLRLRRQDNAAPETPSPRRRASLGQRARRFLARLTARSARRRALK"}}, "data": [{"binder": "B1", "values": [{"measurement": "FRET efficiency", "setting": "[1]", "value": 0.04}, {"measurement": "FRET efficiency", "setting": "[2]", "value": 0.439}, {"measurement": "FRET efficiency", "setting": "[3]", "value": 0.071}]}]}
